T1: human CD79b on the cell surface (human, UniProt P40259 29-229)
T1 sequence: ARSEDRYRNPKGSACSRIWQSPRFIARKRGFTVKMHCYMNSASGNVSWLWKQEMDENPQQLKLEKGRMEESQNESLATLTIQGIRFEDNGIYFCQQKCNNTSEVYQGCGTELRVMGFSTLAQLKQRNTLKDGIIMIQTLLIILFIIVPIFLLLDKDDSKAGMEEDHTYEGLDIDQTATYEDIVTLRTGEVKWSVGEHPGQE

T2: human CD79b and CD20 co-expressed on the surface of B-lymphoma cell lines or primary B cells (human, UniProt P11836 1-297)
T2 sequence 1: T1 sequence
T2 sequence 2: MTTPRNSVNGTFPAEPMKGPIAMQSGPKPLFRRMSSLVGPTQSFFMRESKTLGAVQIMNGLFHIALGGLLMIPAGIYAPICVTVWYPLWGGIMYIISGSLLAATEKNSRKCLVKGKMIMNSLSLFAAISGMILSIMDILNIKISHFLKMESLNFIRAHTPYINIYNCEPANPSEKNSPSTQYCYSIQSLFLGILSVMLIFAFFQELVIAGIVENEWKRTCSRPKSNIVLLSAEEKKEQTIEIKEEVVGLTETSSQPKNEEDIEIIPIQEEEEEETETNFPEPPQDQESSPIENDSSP

B1: 79C3B645 CD79bxCD3 bispecific antibody (bispecific antibody, human IgG1, lambda, L234A L235A)
heavy: QVQLQQSGPGLVKPSQTLSLTCAISGDSVSSNSATWNWIRQSPSRGLEWLGRTYYRSKWYNDYTVSVKSRITINPDTSKNQFSLQLNSVTPEDTAVYYCTRVDIAFDYWGQGTLVTVSSASTKGPSVFPLAPSSKSTSGGTAALGCLVKDYFPEPVTVSWNSGALTSGVHTFPAVLQSSGLYSLSSVVTVPSSSLGTQTYICNVNHKPSNTKVDKKVEPKSCDKTHTCPPCPAPEAAGGPSVFLFPPKPKDTLMISRTPEVTCVVVSVSHEDPEVKFNWYVDGVEVHNAKTKPREEQYNSTYRVVSVLTVLHQDWLNGKEYKCKVSNKALPAPIEKTISKAKGQPREPQVYTLPPSREEMTKNQVSLSCAVKGFYPSDIAVEWESNGQPENNYKTTPPVLDSDGSFFLVSKLTVDKSRWQQGNVFSCSVMHEALHNRFTQKSLSLSPGK
light: QTVVTQPPSVSEAPRQRVTISCSGSSSNIGNHGVNWYQQLPGKAPKLLIYNDDLLPSGVSDRFSGSTSGTSGSLAISGLQSEDEADYYCAAWDDSLNGVVFGGGTKLTVLGQPKAAPSVTLFPPSSEELQANKATLVCLISDFYPGAVTVAWKADSSPVKAGVETTTPSKQSNNKYAASSYLSLTPEQWKSHRSYSCQVTHEGSTVEKTVAPTECS
chain: EIVLTQSPATLSASPGERVTLSCSASSSVSYMNWYQQKPGQAPRRWIYDSSKLASGVPARFSGSGSGRDYTLTISSLEPEDFAVYYCQQWSRNPPTFGGGTKVEIKGGSEGKSSGSGSESKSTGGSQVQLVQSGAEVKKPGSSVKVSCKASGYTFTRSTMHWVRQAPGQGLEWMGYINPSSAYTNYAQKFQGRVTLTADKSTSTAYMELSSLRSEDTAVYYCASPQVHYDYGGFPYWGQGTLVTVSSEPKSSDKTHTCPPCPAPEAAGGPSVFLFPPKPKDTLMISRTPEVTCVVVSVSHEDPEVKFNWYVDGVEVHNAKTKPREEQYNSTYRVVSVLTVLHQDWLNGKEYKCKVSNKALPAPIEKTISKAKGQPREPQVYTLPPSREEMTKNQVSLWCLVKGFYPSDIAVEWESNGQPENNYKTTPPVLDSDGSFFLYSKLTVDKSRWQQGNVFSCSVMHEALHNHYTQKSLSLSPGK
B2: 79C3B650 CD79bxCD3 bispecific antibody (bispecific antibody, human IgG1, kappa, L234A L235A)
heavy: QVQLQESGPGLVKPSQTLSLTCTVSGVSISNYYWSWIRQPPGKGLEWIGRISPSGRTNYNPSLKSRVTMSLDASKNQFSLKLSSVTAADTAVYYCARGEYSGTYSYSFDIWGQGTMVTVSSASTKGPSVFPLAPSSKSTSGGTAALGCLVKDYFPEPVTVSWNSGALTSGVHTFPAVLQSSGLYSLSSVVTVPSSSLGTQTYICNVNHKPSNTKVDKKVEPKSCDKTHTCPPCPAPEAAGGPSVFLFPPKPKDTLMISRTPEVTCVVVSVSHEDPEVKFNWYVDGVEVHNAKTKPREEQYNSTYRVVSVLTVLHQDWLNGKEYKCKVSNKALPAPIEKTISKAKGQPREPQVYTLPPSREEMTKNQVSLSCAVKGFYPSDIAVEWESNGQPENNYKTTPPVLDSDGSFFLVSKLTVDKSRWQQGNVFSCSVMHEALHNRFTQKSLSLSPGK
light: DIQMTQSPSSLSASVGDRVTITCRSSQSLFDSDDGNTYLDWFQQKPGQSPKLLIQTLSYRASGVPSRFSGSGSGTDFTLTISSLQPEDFATYYCMQRMEFPLTFGGGTKVEIKRTVAAPSVFIFPPSDEQLKSGTASVVCLLNNFYPREAKVQWKVDNALQSGNSQESVTEQDSKDSTYSLSSTLTLSKADYEKHKVYACEVTHQGLSSPVTKSFNRGEC
chain: B1 chain
B3: 79C3B605 CD79bxCD3 bispecific antibody (bispecific antibody, human IgG1, kappa, L234A L235A)
heavy: QVQLQESGPGLVKPSETLSLTCSVSGASISSFYWSWIRQPADEGLEWIGRISPSGKTNYIPSLKSRIIMSLDASKNQFSLRLNSVTAADTAMYYCARGEYSGTYSYSFDVWGQGTMVTVSSASTKGPSVFPLAPSSKSTSGGTAALGCLVKDYFPEPVTVSWNSGALTSGVHTFPAVLQSSGLYSLSSVVTVPSSSLGTQTYICNVNHKPSNTKVDKKVEPKSCDKTHTCPPCPAPEAAGGPSVFLFPPKPKDTLMISRTPEVTCVVVSVSHEDPEVKFNWYVDGVEVHNAKTKPREEQYNSTYRVVSVLTVLHQDWLNGKEYKCKVSNKALPAPIEKTISKAKGQPREPQVYTLPPSREEMTKNQVSLSCAVKGFYPSDIAVEWESNGQPENNYKTTPPVLDSDGSFFLVSKLTVDKSRWQQGNVFSCSVMHEALHNRFTQKSLSLSPGK
light: DIVMTQSPLSLSVTPGEPASISCRSSESLLDSEDGNTYLDWFLQKPGQSPQLLIYTLSYRASGVPDRFSGSGSDTDFTLHISSLEAEDVGLYYCMQRMEFPLTFGQGTKVEIKRTVAAPSVFIFPPSDEQLKSGTASVVCLLNNFYPREAKVQWKVDNALQSGNSQESVTEQDSKDSTYSLSSTLTLSKADYEKHKVYACEVTHQGLSSPVTKSFNRGEC
chain: B1 chain
B4: C923B73 CD79bxCD20xCD3 trispecific antibody (other)
heavy: B1 heavy
light: B1 light
chain: EIVLTQSPATLSASPGERVTLSCSASSSVSYMNWYQQKPGQAPRRWIYDSSKLASGVPARFSGSGSGRDYTLTISSLEPEDFAVYYCQQWSRNPPTFGGGTKVEIKGGSEGKSSGSGSESKSTGGSQVQLVQSGAEVKKPGSSVKVSCKASGYTFTRSTMHWVRQAPGQGLEWMGYINPSSAYTNYAQKFQGRVTLTADKSTSTAYMELSSLRSEDTAVYYCASPQVHYDYGGFPYWGQGTLVTVSSEPKSSDKTHTCPPCPAPEAAGGPSVFLFPPKPKDTLMISRTPEVTCVVVSVSHEDPEVKFNWYVDGVEVHNAKTKPREEQYNSTYRVVSVLTVLHQDWLNGKEYKCKVSNKALPAPIEKTISKAKGQPREPQVYTLPPSREEMTKNQVSLWCLVKGFYPSDIAVEWESNGQPENNYKTTPPVLDSDGSFFLYSKLTVDKSRWQQGNVFSCSVMHEALHNHYTQKSLSLSPGKGGSEGKSSGSGSESKSTGGSAIQLTQSPSSLSASVGDRVTITCRASSSVSYIHWFQQKPGKAPKPLIYATSNLASGVPSRFSGSGSGTDFTLTISSLQPEDFATYYCQQWTSNPPTFGQGTKLEIKGGSEGKSSGSGSESKSTGGSQVQLVQSGAEVKKPGSSVKVSCKASGYTFTSYNMHWVRQAPGQGLEWMGAIYPGNGDTSYAQKFQGRVTITADKSTSTAYMELSSLRSEDTAVYYCARSTYYGGDWYFNVWGQGTLVTVSS
B5: C923B95 CD79bxCD20xCD3 trispecific antibody (other)
heavy: B2 heavy
light: B2 light
chain: B4 chain
B6: C923B36 CD79bxCD20xCD3 trispecific antibody (other)
heavy: B3 heavy
light: B3 light
chain: B4 chain

Molecular target: T1, human CD79b on the cell surface
Assay: cell-based or functional assay

Going from B1 to B2, the “IC50, T-cell killing of OCI-Ly10 (Incucyte)” value (from here on “IC50 … of OCI-Ly10 (Incucyte)”) falls from 18 nM to 7 nM (2.6-fold).

For B3, the “IC50 … of OCI-Ly10 (Incucyte)” value was 54.3 nM.

Molecular target: T2, human CD79b and CD20 co-expressed on …
Assay: cell-based or functional assay

Compared with B4, B5 is 8.9-fold lower in “IC50 … of OCI-Ly10 (Incucyte)” value: 132 nM for the first, 14.8 nM for the second.

For B6, the “IC50 … of OCI-Ly10 (Incucyte)” value was 42 nM.

Molecular target: T1, human CD79b on the cell surface
Assay: cell-based or functional assay
Remark: another data set of the same source

First: B1
Second: B2
The “IC50, T-cell killing of HBL-1 (Incucyte)” value of the first is 6-fold lower: 7.19 nM for the first, 43.3 nM for the second.

With B3 the “IC50, T-cell killing of HBL-1 (Incucyte)” value was 29.5 nM.

Molecular target: T2, human CD79b and CD20 co-expressed on …
Assay: cell-based or functional assay
Remark: another data set of the same source

B4 and B5 are within 1.5-fold of each other in “IC50, T-cell killing of HBL-1 (Incucyte)” value: 6.8 nM for the first, 4.89 nM for the second.

B6 was tested, and the “IC50, T-cell killing of HBL-1 (Incucyte)” value was 31 nM.

— patent publication US20250043019A1 (Janssen / Centocor, published 2025)
